Data as given in patent US20190183976A1 (GPCR THERAPEUTICS, published 2019).

T1: CHRM1 (human, UniProt P11229 1-460)
T1 construct: whole, on cells; Untagged: adenovirus-expressed in U-2 OS or MDA-MB-231 cells, or endogenous in patient derived cells; also called Cholinergic Receptor Muscarinic 1
T1 sequence (looked up): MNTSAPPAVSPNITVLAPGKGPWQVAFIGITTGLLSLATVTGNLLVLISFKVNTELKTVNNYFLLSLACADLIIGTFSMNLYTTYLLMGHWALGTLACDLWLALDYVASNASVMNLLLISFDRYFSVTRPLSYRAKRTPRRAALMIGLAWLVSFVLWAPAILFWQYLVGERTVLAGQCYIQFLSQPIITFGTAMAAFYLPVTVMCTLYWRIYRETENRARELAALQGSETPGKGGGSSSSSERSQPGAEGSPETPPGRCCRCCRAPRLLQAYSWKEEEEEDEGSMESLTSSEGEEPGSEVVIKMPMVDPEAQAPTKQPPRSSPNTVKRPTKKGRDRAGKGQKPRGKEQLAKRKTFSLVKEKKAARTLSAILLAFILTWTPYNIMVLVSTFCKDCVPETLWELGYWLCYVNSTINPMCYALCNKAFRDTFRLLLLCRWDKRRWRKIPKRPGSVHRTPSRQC

B1: CXCR4 (receptor, human, UniProt P61073 1-352, looked up)
chain: MEGISIYTSDNYTEEMGSGDYDSMKEPCFREENANFNKIFLPTIYSIIFLTGIVGNGLVILVMGYQKKLRSMTDKYRLHLSVADLLFVITLPFWAVDAVANWYFGNFLCKAVHVIYTVNLYSSVLILAFISLDRYLAIVHATNSQRPRKLLAEKVVYVGVWIPALLLTIPDFIFANVSEADDRYICDRFYPNDLWVVVFQFQHIMVGLILPGIVILSCYCIIISKLSHSKGHQKRKALKTTVILILAFFACWLPYYIGISIDSFILLEIIKQGCEFENTVHKWISITEALAFFHCCLNPILYAFLGAKFKTSAQHALTSVSRGSSLKILSKGKRGGHSSVSTESESSSFHSS
notes: whole, on cells; also called C-X-C Motif Chemokine Receptor 4; CXC receptor 4
B2: C5AR1-VC (receptor, human, UniProt P21730 1-350, looked up)
chain: MDSFNYTTPDYGHYDDKDTLDLNTPVDKTSNTLRVPDILALVIFAVVFLVGVLGNALVVWVTAFEAKRTINAIWFLNLAVADFLSCLALPILFTSIVQHHHWPFGGAACSILPSLILLNMYASILLLATISADRFLLVFKPIWCQNFRGAGLAWIACAVAWGLALLLTIPSFLYRVVREEYFPPKVLCGVDYSHDKRRERAVAIVRLVLGFLWPLLTLTICYTFILLRTWSRRATRSTKTLKVVVAVVASFFIFWLPYQVTGIMMSFLEPSSPTFLLLKKLDSLCVSFAYINCCINPIIYVVAGQGFQGRLRKSLPSLLRNVLTEESVVRESKSFTRSTVDTMAQKTQAV
notes: whole, on cells; Adenovirus-expressed in U-2 OS cells; not shown: VC155, C-terminal fragment of Venus
B3: CALCR-VC (receptor, human, UniProt P30988 25-474, looked up)
chain: AFSNQTYPTIEPKPFLYVVGRKKMMDAQYKCYDRMQQLPAYQGEGPYCNRTWDGWLCWDDTPAGVLSYQFCPDYFPDFDPSEKVTKYCDEKGVWFKHPENNRTWSNYTMCNAFTPEKLKNAYVLYYLAIVGHSLSIFTLVISLGIFVFFRSLGCQRVTLHKNMFLTYILNSMIIIIHLVEVVPNGELVRRDPVSCKILHFFHQYMMACNYFWMLCEGIYLHTLIVVAVFTEKQRLRWYYLLGWGFPLVPTTIHAITRAVYFNDNCWLSVETHLLYIIHGPVMAALVVNFFFLLNIVRVLVTKMRETHEAESHMYLKAVKATMILVPLLGIQFVVFPWRPSNKMLGKIYDYVMHSLIHFQGFFVATIYCFCNNEVQTTVKRQWAQFKIQWNQRWGRRPSNRSARAAAAAAEAGDIPIYICHQELRNEPANNQGEESAEIIPLNIIEQESSA
notes: as for B2
B4: TACR3-VC (receptor, human, UniProt P29371 1-465, looked up)
chain: MATLPAAETWIDGGGGVGADAVNLTASLAAGAATGAVETGWLQLLDQAGNLSSSPSALGLPVASPAPSQPWANLTNQFVQPSWRIALWSLAYGVVVAVAVLGNLIVIWIILAHKRMRTVTNYFLVNLAFSDASMAAFNTLVNFIYALHSEWYFGANYCRFQNFFPITAVFASIYSMTAIAVDRYMAIIDPLKPRLSATATKIVIGSIWILAFLLAFPQCLYSKTKVMPGRTLCFVQWPEGPKQHFTYHIIVIILVYCFPLLIMGITYTIVGITLWGGEIPGDTCDKYHEQLKAKRKVVKMMIIVVMTFAICWLPYHIYFILTAIYQQLNRWKYIQQVYLASFWLAMSSTMYNPIIYCCLNKRFRAGFKRAFRWCPFIKVSSYDELELKTTRFHPNRQSSMYTVTRMESMTVVFDPNDADTTRSSRKKRATPRDPSFNGCSRRNSKSASATSSFISSPYTSVDEYS
notes: as for B2
B5: APLNR-VC (receptor, human, UniProt P35414 1-380, looked up)
chain: MEEGGDFDNYYGADNQSECEYTDWKSSGALIPAIYMLVFLLGTTGNGLVLWTVFRSSREKRRSADIFIASLAVADLTFVVTLPLWATYTYRDYDWPFGTFFCKLSSYLIFVNMYASVFCLTGLSFDRYLAIVRPVANARLRLRVSGAVATAVLWVLAALLAMPVMVLRTTGDLENTTKVQCYMDYSMVATVSSEWAWEVGLGVSSTTVGFVVPFTIMLTCYFFIAQTIAGHFRKERIEGLRKRRRLLSIIVVLVVTFALCWMPYHLVKTLYMLGSLLHWPCDFDLFLMNIFPYCTCISYVNSCLNPFLYAFFDPRFRQACTSMLCCGQSRCAGTSHSSSGEKSASYSSGHSQGPGPNMGKGGEQMHEKSIPYSQETLVVD
notes: as for B2
B6: EDNRB-VC (receptor, human, UniProt P24530 27-442, looked up)
chain: EERGFPPDRATPLLQTAEIMTPPTKTLWPKGSNASLARSLAPAEVPKGDRTAGSPPRTISPPPCQGPIEIKETFKYINTVVSCLVFVLGIIGNSTLLRIIYKNKCMRNGPNILIASLALGDLLHIVIDIPINVYKLLAEDWPFGAEMCKLVPFIQKASVGITVLSLCALSIDRYRAVASWSRIKGIGVPKWTAVEIVLIWVVSVVLAVPEAIGFDIITMDYKGSYLRICLLHPVQKTAFMQFYKTAKDWWLFSFYFCLPLAITAFFYTLMTCEMLRKKSGMQIALNDHLKQRREVAKTVFCLVLVFALCWLPLHLSRILKLTLYNQNDPNRCELLSFLLVLDYIGINMASLNSCINPIALYLVSKRFKNCFKSCLCCWCQSFEEKQSLEEKQSCLKFKANDHGYDNFRSSNKYSSS
notes: as for B2
B7: CHRM1-VC (receptor, human, UniProt P11229 1-460, looked up)
chain: T1 sequence (looked up)
notes: as for B2
B8: ADCYAP1R1-VC (receptor, human, UniProt P41586 21-468, looked up)
chain: MHSDCIFKKEQAMCLEKIQRANELMGFNDSSPGCPGMWDNITCWKPAHVGEMVLVSCPELFRIFNPDQVWETETIGESDFGDSNSLDLSDMGVVSRNCTEDGWSEPFPHYFDACGFDEYESETGDQDYYYLSVKALYTVGYSTSLVTLTTAMVILCRFRKLHCTRNFIHMNLFVSFMLRAISVFIKDWILYAEQDSNHCFISTVECKAVMVFFHYCVVSNYFWLFIEGLYLFTLLVETFFPERRYFYWYTIIGWGTPTVCVTVWATLRLYFDDTGCWDMNDSTALWWVIKGPVVGSIMVNFVLFIGIIVILVQKLQSPDMGGNESSIYLRLARSTLLLIPLFGIHYTVFAFSPENVSKRERLVFELGLGSFQGFVVAVLYCFLNGEVQAEIKRKWRSWKVNRYFAVDFKHRHPSLASSGVNGGTQLSILSKSSSQIRMSGLPADNLAT
notes: as for B2
B9: GALR1-VC (receptor, human, UniProt P47211 1-349, looked up)
chain: MELAVGNLSEGNASWPEPPAPEPGPLFGIGVENFVTLVVFGLIFALGVLGNSLVITVLARSKPGKPRSTTNLFILNLSIADLAYLLFCIPFQATVYALPTWVLGAFICKFIHYFFTVSMLVSIFTLAAMSVDRYVAIVHSRRSSSLRVSRNALLGVGCIWALSIAMASPVAYHQGLFHPRASNQTFCWEQWPDPRHKKAYVVCTFVFGYLLPLLLICFCYAKVLNHLHKKLKNMSKKSEASKKKTAQTVLVVVVVFGISWLPHHIIHLWAEFGVFPLTPASFLFRITAHCLAYSNSSVNPIIYAFLSENFRKAYKQVFKCHIRKDSHLSDTKESKSRIDTPPSTNCTHV
notes: as for B2
B10: ADORA3-VC (receptor, human, UniProt P0DMS8 1-318, looked up)
chain: MPNNSTALSLANVTYITMEIFIGLCAIVGNVLVICVVKLNPSLQTTTFYFIVSLALADIAVGVLVMPLAIVVSLGITIHFYSCLFMTCLLLIFTHASIMSLLAIAVDRYLRVKLTVRYKRVTTHRRIWLALGLCWLVSFLVGLTPMFGWNMKLTSEYHRNVTFLSCQFVSVMRMDYMVYFSFLTWIFIPLVVMCAIYLDIFYIIRNKLSLNLSNSKETGAFYGREFKTAKSLFLVLFLFALSWLPLSIINCIIYFNGEVPQLVLYMGILLSHANSMMNPIVYAYKIKKFKETYLLILKACVVCHPSDSLDTSIEKNSE
notes: as for B2

Target: T2, ADRB2 (human, UniProt P07550 1-413)
T2 construct: whole, on cells; Untagged: adenovirus-expressed in U-2 OS or MDA-MB-231 cells, or endogenous in patient derived cells and PDX tissue; also called Adrenoceptor Beta 2; Ad-ADRB2
Assay: proximity ligation assay, GBM patient derived cells (endogenous receptors)
Experimental: (§1) To perform PLA with PDC samples, the patient derived cells were plated and fixed with 4% PFA on sixteen-well tissue culture slides. […] Slides were then washed and incubated (1 h at 37° C.) with secondary anti-rabbit and anti-mouse antibodies conjugated with plus and minus Duolink II PLA probes. Slides were washed again and then incubated with ligation-ligase solution (30 min at 37° C.) followed by incubation with amplification-polymerase solution (2 h at 37° C.).
as §1, with “PDCs” for “To perform PLA with PDC samples, the patient derived cells”, “seeded in 96-chamber slide at 100000 ea /well in 100 ul” for “plated and fixed with 4% PFA on sixteen-well tissue”, “media.” for “slides.”

Question: Does B1 bind?
Answer: Result: binds

Target: T1, CHRM1
Assay: as above
Experimental: as §1
as §1, with “PDCs” for “To perform PLA with PDC samples, the patient derived cells”, “seeded in 96-chamber slide at 100000 ea /well in 100 ul” for “plated and fixed with 4% PFA on sixteen-well tissue”, “media.” for “slides.”

Question: Does B1 bind?
Answer: Result: binds

Target: T3, CXCR4-VN (human, UniProt P61073 1-352)
T3 construct: whole, on cells; Adenovirus-expressed in U-2 OS cells; also called CXCR4 fused with N-terminal fragment of Venus; not shown: VNm10, N-terminal fragment of Venus (VN154 variant with L46F and L64F)
Assay: BiFC, U-2 OS cells, CXCR4-VN & GPCRx-VC; score=(positive cells/total cells)x100
Experimental: (§2) Images of about 200 cells from each well were analyzed with Multi-target analysis software in IN Cell Developer ToolBox (GE Healthcare, Waukesha, Wis.). Cell boundary was marked based on Hoechst signal, and fluorescence intensity per cell was measured. Cells with fluorescence intensities higher than background level were considered as BiFC positive cells. […] Positive cells were determined, and positive cell count ratio (“BiFC score”) was calculated as (positive cells/total cells)×100 (see Table 4 below).

Question: With B2 as the binder, how does the BiFC score read?
Answer: Its BiFC score is 42.

Question: B3 was tested. Which BiFC score did it give?
Answer: The BiFC score was 53.

Question: B4 was tested. Which BiFC score did it give?
Answer: Its BiFC score is 33.

Question: Which BiFC score does the source give for B5 here?
Answer: The BiFC score was 63.

Question: How did the BiFC score turn out when B6 was run?
Answer: The BiFC score was 41.

Question: For B7, which BiFC score is on record?
Answer: The BiFC score was 24.

Question: Which BiFC score does the source give for B8 here?
Answer: The BiFC score was 23.

Question: B9 was tested. Which BiFC score did it give?
Answer: The BiFC score was 60.

Question: How did the BiFC score turn out when B10 was run?
Answer: Its BiFC score is 43.

Target: T3, CXCR4-VN
Assay: as above
Remark: another data set of the same source
Experimental: as §2

Question: B5 was tested. Which BiFC score did it give?
Answer: The BiFC score was 63.

Question: How did the BiFC score turn out when B9 was run?
Answer: Its BiFC score is 60.
